Assay results taken from publication PMC9536601 (2022).

T1: Ad1 hexon, on wild-type human adenovirus type 1 virions (human adenovirus type 1)
T1 chain: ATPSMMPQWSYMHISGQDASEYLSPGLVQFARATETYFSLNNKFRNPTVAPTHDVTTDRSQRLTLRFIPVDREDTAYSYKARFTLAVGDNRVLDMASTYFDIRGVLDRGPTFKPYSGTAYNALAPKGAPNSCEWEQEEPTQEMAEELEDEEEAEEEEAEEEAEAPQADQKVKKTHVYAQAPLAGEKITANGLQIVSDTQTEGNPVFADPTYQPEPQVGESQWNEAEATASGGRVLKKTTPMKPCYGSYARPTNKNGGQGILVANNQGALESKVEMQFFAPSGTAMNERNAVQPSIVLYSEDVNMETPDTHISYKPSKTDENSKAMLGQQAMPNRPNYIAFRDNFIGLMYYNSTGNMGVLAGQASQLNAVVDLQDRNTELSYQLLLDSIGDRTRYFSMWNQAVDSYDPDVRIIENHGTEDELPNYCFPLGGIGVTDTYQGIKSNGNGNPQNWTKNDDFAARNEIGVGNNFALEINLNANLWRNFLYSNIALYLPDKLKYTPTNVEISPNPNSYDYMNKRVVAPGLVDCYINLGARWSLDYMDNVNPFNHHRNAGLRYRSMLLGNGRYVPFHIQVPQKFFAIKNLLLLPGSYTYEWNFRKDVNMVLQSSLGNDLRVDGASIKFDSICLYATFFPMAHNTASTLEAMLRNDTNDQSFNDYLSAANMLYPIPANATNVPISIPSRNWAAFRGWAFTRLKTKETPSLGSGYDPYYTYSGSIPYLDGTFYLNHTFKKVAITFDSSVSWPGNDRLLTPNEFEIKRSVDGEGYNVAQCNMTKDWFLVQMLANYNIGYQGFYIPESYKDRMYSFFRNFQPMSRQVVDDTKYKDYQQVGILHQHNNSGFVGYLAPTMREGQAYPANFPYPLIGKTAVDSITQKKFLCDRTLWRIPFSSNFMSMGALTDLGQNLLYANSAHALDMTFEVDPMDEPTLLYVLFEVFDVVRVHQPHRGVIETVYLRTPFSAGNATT

T2: Ad2 hexon, on wild-type human adenovirus type 2 virions (human adenovirus type 2, UniProt P03277 1-968)
T2 chain: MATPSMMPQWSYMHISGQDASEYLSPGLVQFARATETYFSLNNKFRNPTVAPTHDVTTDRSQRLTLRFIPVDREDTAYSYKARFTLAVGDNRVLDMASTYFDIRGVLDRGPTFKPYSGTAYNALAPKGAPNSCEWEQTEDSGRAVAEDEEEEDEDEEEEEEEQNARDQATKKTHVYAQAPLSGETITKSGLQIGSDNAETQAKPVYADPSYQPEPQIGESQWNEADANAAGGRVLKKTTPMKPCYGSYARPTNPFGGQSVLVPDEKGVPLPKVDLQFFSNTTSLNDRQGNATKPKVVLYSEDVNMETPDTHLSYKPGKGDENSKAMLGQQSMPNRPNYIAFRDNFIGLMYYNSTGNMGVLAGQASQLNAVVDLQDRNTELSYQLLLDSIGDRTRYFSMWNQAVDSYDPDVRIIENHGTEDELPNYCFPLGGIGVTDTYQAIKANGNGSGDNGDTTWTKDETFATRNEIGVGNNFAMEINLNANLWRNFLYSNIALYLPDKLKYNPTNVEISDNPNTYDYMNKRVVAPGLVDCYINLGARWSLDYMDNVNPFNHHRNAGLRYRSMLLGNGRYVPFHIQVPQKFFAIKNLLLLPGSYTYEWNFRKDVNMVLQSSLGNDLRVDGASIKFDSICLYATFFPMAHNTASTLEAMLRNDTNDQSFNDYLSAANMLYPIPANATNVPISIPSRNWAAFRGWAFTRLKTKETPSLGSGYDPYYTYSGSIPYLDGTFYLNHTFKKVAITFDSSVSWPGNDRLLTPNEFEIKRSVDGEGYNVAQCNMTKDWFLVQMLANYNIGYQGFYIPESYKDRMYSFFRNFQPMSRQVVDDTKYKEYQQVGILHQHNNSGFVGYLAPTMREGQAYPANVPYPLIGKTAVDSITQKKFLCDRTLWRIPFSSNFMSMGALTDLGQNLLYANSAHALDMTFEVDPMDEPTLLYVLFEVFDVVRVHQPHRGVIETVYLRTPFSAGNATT

T3: Ad5 hexon, on wild-type human adenovirus type 5 virions (human adenovirus type 5, UniProt P04133 2-952)
T3 chain: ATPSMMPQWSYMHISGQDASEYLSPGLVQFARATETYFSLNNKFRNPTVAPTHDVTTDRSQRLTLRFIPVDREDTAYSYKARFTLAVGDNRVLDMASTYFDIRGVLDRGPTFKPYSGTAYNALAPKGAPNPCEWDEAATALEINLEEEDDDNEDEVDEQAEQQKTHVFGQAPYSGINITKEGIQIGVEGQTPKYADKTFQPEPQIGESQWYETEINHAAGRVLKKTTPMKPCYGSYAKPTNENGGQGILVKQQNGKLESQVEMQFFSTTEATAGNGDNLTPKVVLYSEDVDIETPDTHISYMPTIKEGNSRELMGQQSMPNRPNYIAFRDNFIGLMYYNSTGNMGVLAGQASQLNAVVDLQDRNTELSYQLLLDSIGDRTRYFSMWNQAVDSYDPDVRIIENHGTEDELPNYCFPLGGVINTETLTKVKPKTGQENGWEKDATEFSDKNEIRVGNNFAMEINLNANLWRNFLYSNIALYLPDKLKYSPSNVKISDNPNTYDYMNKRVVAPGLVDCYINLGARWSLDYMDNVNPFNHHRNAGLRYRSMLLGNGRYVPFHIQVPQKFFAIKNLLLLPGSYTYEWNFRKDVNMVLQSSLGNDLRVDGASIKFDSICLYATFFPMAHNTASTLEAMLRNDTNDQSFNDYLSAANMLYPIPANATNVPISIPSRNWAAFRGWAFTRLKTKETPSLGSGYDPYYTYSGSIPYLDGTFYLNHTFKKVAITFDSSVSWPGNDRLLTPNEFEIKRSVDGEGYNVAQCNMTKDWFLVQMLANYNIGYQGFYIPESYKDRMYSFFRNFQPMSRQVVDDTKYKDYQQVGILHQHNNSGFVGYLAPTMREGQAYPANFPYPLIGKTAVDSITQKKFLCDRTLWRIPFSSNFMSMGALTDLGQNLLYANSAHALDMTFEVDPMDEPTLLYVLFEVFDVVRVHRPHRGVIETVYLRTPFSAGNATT

B1: Ad6 hexon, on wild-type human adenovirus type 6 virions (natural protein)
chain: ATPSMMPQWSYMHISGQDASEYLSPGLVQFARATETYFSLNNKFRNPTVAPTHDVTTDRSQRLTLRFIPVDREDTAYSYKARFTLAVGDNRVLDMASTYFDIRGVLDRGPTFKPYSGTAYNALAPKGAPNSCEWEQNETAQVDAQELDEEENEANEAQAREQEQAKKTHVYAQAPLSGIKITKEGLQIGTADATVAGAGKEIFADKTFQPEPQVGESQWNEADATAAGGRVLKKTTPMKPCYGSYARPTNSNGGQGVMVEQNGKLESQVEMQFFSTSTNATNEVNNIQPTVVLYSEDVNMETPDTHLSYKPKMGDKNAKVMLGQQAMPNRPNYIAFRDNFIGLMYYNSTGNMGVLAGQASQLNAVVDLQDRNTELSYQLLLDSIGDRTRYFSMWNQAVDSYDPDVRIIENHGTEDELPNYCFPLGGIGITDTFQAVKTTAANGDQGNTTWQKDSTFAERNEIGVGNNFAMEINLNANLWRNFLYSNIALYLPDKLKYNPTNVEISDNPNTYDYMNKRVVAPGLVDCYINLGARWSLDYMDNVNPFNHHRNAGLRYRSMLLGNGRYVPFHIQVPQKFFAIKNLLLLPGSYTYEWNFRKDVNMVLQSSLGNDLRVDGASIKFDSICLYATFFPMAHNTASTLEAMLRNDTNDQSFNDYLSAANMLYPIPANATNVPISIPSRNWAAFRGWAFTRLKTKETPSLGSGYDPYYTYSGSIPYLDGTFYLNHTFKKVAITFDSSVSWPGNDRLLTPNEFEIKRSVDGEGYNVAQCNMTKDWFLVQMLANYNIGYQGFYIPESYKDRMYSFFRNFQPMSRQVVDDTKYKDYQQVGIIHQHNNSGFVGYLAPTMREGQAYPANVPYPLIGKTAVDSITQKKFLCDRTLWRIPFSSNFMSMGALTDLGQNLLYANSAHALDMTFEVDPMDEPTLLYVLFEVFDVVRVHQPHRGVIETVYLRTPFSAGNATT
B2: bovine prothrombin (FII) (natural protein)
chain: not shown
modifications: gamma-carboxylated glutamate residues in the Gla domain
B3: bovine coagulation factor X (natural protein)
chain 1: ANSFLEEVKQGNLERECLEEACSLEEAREVFEDAEQTDEFWSKYKDGDQCEGHPCLNQGHCKDGIGDYTCTCAEGFEGKNCEFSTREICSLDNGGCDQFCREERSEVRCSCAHGYVLGDDSKSCVSTERFPCGKFTQGRS
chain 2: WAIHTSEDALDASELEHYDPADLSPTESSLDLLGLNRTEPSAGEDGSQVVRIVGGRDCAEGECPWQALLVNEENEGFCGGTILNEFYVLTAAHCLHQAKRFTVRVGDRNTEQEEGNEMAHEVEMTVKHSRFVKETYDFDIAVLRLKTPIRFRRNVAPACLPEKDWAEATLMTQKTGIVSGFGRTHEKGRLSSTLKMLEVPYVDRSTCKLSSSFTITPNMFCAGYDTQPEDACQGDSGGPHVTRFKDTYFVTGIVSWGEGCARKGKFGVYTKVSNFLKWIDKIMKARAGAAGSRGHSEAPATWTVPPPLPL
modifications: gamma-carboxylated glutamate residues in the Gla domain
B4: human coagulation factor X (natural protein)
chain 1: ANSFLEEMKKGHLERECMEETCSYEEAREVFEDSDKTNEFWNKYKDGDQCETSPCQNQGKCKDGLGEYTCTCLEGFEGKNCELFTRKLCSLDNGDCDQFCHEEQNSVVCSCARGYTLADNGKACIPTGPYPCGKQTLER
chain 2: SVAQATSSSGEAPDSITWKPYDAADLDPTENPFDLLDFNQTQPERGDNNLTRIVGGQECKDGECPWQALLINEENEGFCGGTILSEFYILTAAHCLYQAKRFKVRVGDRNTEQEEGGEAVHEVEVVIKHNRFTKETYDFDIAVLRLKTPITFRMNVAPACLPERDWAESTLMTQKTGIVSGFGRTHEKGRQSTRLKMLEVPYVDRNSCKLSSSFIITQNMFCAGYDTKQEDACQGDSGGPHVTRFKDTYFVTGIVSWGEGCARKGKYGIYTKVTAFLKWIDRSMKTRGLPKAKSHAPEVITSSPLK
modifications: gamma-carboxylated glutamate residues in the Gla domain
B5: mouse prothrombin (FII) (natural protein)
chain: not shown
modifications: gamma-carboxylated glutamate residues in the Gla domain

Legend:
Experiment in all cases: SPR
human prothrombin (FII) = human prothrombin (FII) (human, UniProt P00734 44-622, gamma-carboxylated glutamate residues in the Gla domain)
[1] = target: T1, Ad1 hexon, on wild-type human …
[2] = target: B1
[3] = target: T2, Ad2 hexon, on wild-type human …
[4] = target: T3, Ad5 hexon, on wild-type human …

Binder	Kd (human prothrombin (FII)) [nM]	Kd [1] [nM]	Kd [2] [nM]	Kd [3] [nM]	Kd [4] [nM]
B1	2.7				
B2		37			
B3		160	100	73	
B4		220	28		0.74
B5		14			
